In patent publication US20230071422A1 (BEIJING WISDOMAB BIOTECHNOLOGY, published 2023) one finds Kd, koff and kon data, which are given here for one molecule.

Assay [1] addresses T1, extracellular region of human CD123 subtype 1 with C-terminal His tag (hCD123-SP1-his) (human (Homo sapiens), UniProt P26951 19-305).
T1 construct: Recombinant, expressed in HEK293 cells
T1 sequence: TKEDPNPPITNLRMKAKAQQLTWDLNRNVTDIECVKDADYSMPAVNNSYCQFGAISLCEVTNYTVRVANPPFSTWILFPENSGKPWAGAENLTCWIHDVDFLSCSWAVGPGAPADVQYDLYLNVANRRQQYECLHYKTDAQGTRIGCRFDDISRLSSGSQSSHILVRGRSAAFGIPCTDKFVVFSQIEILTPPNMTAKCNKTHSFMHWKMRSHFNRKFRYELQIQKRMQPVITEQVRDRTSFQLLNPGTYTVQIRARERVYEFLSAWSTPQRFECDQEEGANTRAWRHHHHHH
The assay is described as follows: SPR, Biacore X100; antibody captured by anti-human IgG (Fc), hCD123-SP1-his as analyte, 1:1 model. As for the experimental part:
The affinity of anti-CD123 antibodies was determined by surface plasmon resonance using Biacore X100. Related reagents and consumables such as Amino Conjugation Kit (BR-1000-50), Human Antibody Capture Kit (BR-1008-39), CM5 Chip (BR100012) and 10×HBS-EP (BR100669) buffer with pH 7.4 were all purchased from GE healthcare. According to the instructions in the kits, 1-Ethyl-3-(3-dimethylaminopropyl) carbodiimide hydrochloride (EDC) and N-Hydroxysuccinimide (NHS) was used to activate the surface of the carboxylated CM5 chip, and the anti-human IgG (Fc) antibody (capture antibody) was diluted to 25 μg/mL with 10 mM, pH5.0 sodium acetate, followed by an injection with a flow rate at 10 μL/min to achieve a coupling volume of approximately 10,000 response units (RU). Following the injection of the capture antibody, 1 M ethanolamine was injected to block unreacted groups. […] The chip surface was regenerated by injecting 3M MgCl₂ solution at 10 μL/min for 30 s. Association rates (Kₒₙ) and dissociation rates (Koff) were calculated from association and dissociation sensorgrams fitted by a 1:1 binding model using Biacore X100 evaluation software version 2.0.1. The dissociation equilibrium constant (KD) was calculated as the ratio Koff/Kₒₙ.

The target of assay [2] is T2, extracellular region of cynomolgus monkey CD3E with C-terminal His tag (mfCD3E-his) (cynomolgus monkey (Macaca fascicularis), UniProt Q95LI5 22-117).
T2 construct: Recombinant, expressed in HEK293 cells
T2 sequence: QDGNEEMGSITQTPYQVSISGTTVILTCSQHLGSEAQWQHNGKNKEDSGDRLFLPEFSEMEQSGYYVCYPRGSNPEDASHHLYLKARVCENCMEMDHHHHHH
The assay is described as follows: SPR, Biacore X100; antibody captured by anti-human IgG (Fc), mfCD3E-his as analyte, 1:1 model. As for the experimental part: (§1) The chip surface was regenerated by injecting 3M MgCl₂ solution at 10 μL/min for 30 s. Association rates (Kₒₙ) and dissociation rates (Koff) were calculated from association and dissociation sensorgrams fitted by a 1:1 binding model using Biacore X100 evaluation software version 2.0.1. The dissociation equilibrium constant (KD) was calculated as the ratio Koff/Kₒₙ.

Assay [3] concerns the target T3, CD123 on the surface of CD123-positive cells (KG-1a, MV-4-11) (human, UniProt P26951 19-378).
T3 construct: whole, on cells; Endogenous CD123 on KG-1a (human acute myeloid leukemia) and MV-4-11 (human acute monocytic leukemia) cells; also called cell surface CD123 antigen; CD123 on the surface of MV-4-11 cells
The assay is described as follows: flow cytometry on MV-4-11 cells, titration from 100 nM, goat anti-human IgG-FITC. How it is done: MV-4-11 cells at the logarithmic phase of growth were used and resuspended to 2×10⁶ […] with PBS buffer containing 1% BSA after centrifugation. MV-4-11 cells were plated in a 96-well V-bottom plate at 100 μL/well, and the supernatant was removed after centrifugation. […] The antibodies were added to the wells containing cells and incubated at 4° C. for 1 hour. Then, the plate was washed three times with 200 μL PBS buffer. The goat anti-human IgG-FITC secondary antibody (ZF-0308, ZSGB-BIO) was added to the wells (100 μL/well), and incubated at 4° C. for 30 minutes in the dark. Then, the cells were washed three times with 200 μL of PBS buffer, and resuspended in 100 μL of PBS buffer to detect FITC channel by flow cytometer (ACEA, Novocyte).

Assay [4] addresses T4, extracellular region of human CD3E with C-terminal His tag (hCD3E-his) (human (Homo sapiens), UniProt P07766 23-126).
T4 construct: Recombinant, expressed in HEK293 cells
Put plainly: SPR, Biacore X100; antibody captured by anti-human IgG (Fc), hCD3E-his as analyte, 1:1 model. How it is done:
as §1

T4 sequence (P07766 other isoform, or with tags, fused parts or gaps limits assumed): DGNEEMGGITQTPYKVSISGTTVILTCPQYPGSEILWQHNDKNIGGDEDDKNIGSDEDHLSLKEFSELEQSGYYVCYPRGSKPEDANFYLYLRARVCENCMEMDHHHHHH

B1: bispecific antibody CD3E×CD123 (bispecific antibody, human IgG1, kappa)
heavy 1: EVQLVESGGGLVQPGGSLRLSCAASGFTFSNAWMHWVRQAPGKGLEWVGQIKDKSNNYATYYADAVKGRFTISRDDSKNSLYLQMNSLKTEDTAVYYCRYVHYGVRFFYTMDVWGQGTTVTVSSASTKGPSVFPLAPSSKSTSGGTAALGCLVKDYFPEPVTVSWNSGALTSGVHTFPAVLQSSGLYSLSSVVTVPSSSLGTQTYICNVNHKPSNTKVDKRVEPKSCDKTHTCPPCPAPEFEGGPSVFLFPPKPKDTLMISRTPEVTCVVVDVSHEDPEVKFNWYVDGVEVHNAKTKPREEQYNSTYRVVSVLTVLHQDWLNGKEYKCKVSNKALPASIEKTISKAKGQPREPQVYTLPPCREEMTKNQVSLWCLVKGFYPSDIAVEWESNGQPENNYKTTPPVLDSDGSFFLYSKLTVDKSRWQQGNVFSCSVMHEALHNHYTQKSLSLSPGK
heavy 2: QVQLVQSGAEVKKPGASVKVSCKASGYTFTSYDVSWVRQAPGQRLEWMGWVYPVDGSTKFNEKFKGRVTLTADRSSSTAYMELSSLRSEDTAVYYCARLTYGDFGDAMDYWGQGTLVTVSSASTKGPSVFPLAPSSKSTSGGTAALGCLVKDYFPEPVTVSWNSGALTSGVHTFPAVLQSSGLYSLSSVVTVPSSSLGTQTYICNVNHKPSNTKVDKRVEPKSCDKTHTCPPCPAPEFEGGPSVFLFPPKPKDTLMISRTPEVTCVVVDVSHEDPEVKFNWYVDGVEVHNAKTKPREEQYNSTYRVVSVLTVLHQDWLNGKEYKCKVSNKALPASIEKTISKAKGQPREPQVCTLPPSREEMTKNQVSLSCAVKGFYPSDIAVEWESNGQPENNYKTTPPVLDSDGSFFLVSKLTVDKSRWQQGNVFSCSVMHEALHNHYTQKSLSLSPGK
light: DIVMTQTPLSLSVTPGQPASISCKSSQSLVHSNDNTYLTWYLQKPGQSPQLLIYKVSNRFSGVPDRFSGSGSGTDFTLKISRVEAEDVGVYYCGQGTQYPFTFGQGTKLEIKRTVAAPSVFIFPPSDEQLKSGTASVVCLLNNFYPREAKVQWKVDNALQSGNSQESVTEQDSKDSTYSLSSTLTLSKADYEKHKVYACEVTHQGLSSPVTKSFNRGEC
notes: also called CD3×CD123 BsAb; CD3E×CD123 BsAb
Take B1: the Kd in assay [1] stood at 0.178 nM; in assay [2] it was 11.5 nM; in assay [3], 7.08 nM; in assay [4], 14.1 nM. For the same molecule, the koff was 4.02e-05 s⁻¹ in assay [1], 0.00157 s⁻¹ in assay [2] and 0.000797 s⁻¹ in assay [4]. The kon was 225000 M⁻¹ s⁻¹ in assay [1], 137000 M⁻¹ s⁻¹ in assay [2] and 56500 M⁻¹ s⁻¹ in assay [4].
